Data published in patent US6423500 (SCHERING, dated 2002).

T1: mouse IL-10 receptor (mouse, UniProt Q61727 17-575)
T1 construct: Expressed on transfected COS7 cells; the native receptor on mouse cell lines (MC/9, J774, WEHI 265.1) is written as this same molecule; also called mIL-10R; mouse IL-10 receptor component
T1 sequence: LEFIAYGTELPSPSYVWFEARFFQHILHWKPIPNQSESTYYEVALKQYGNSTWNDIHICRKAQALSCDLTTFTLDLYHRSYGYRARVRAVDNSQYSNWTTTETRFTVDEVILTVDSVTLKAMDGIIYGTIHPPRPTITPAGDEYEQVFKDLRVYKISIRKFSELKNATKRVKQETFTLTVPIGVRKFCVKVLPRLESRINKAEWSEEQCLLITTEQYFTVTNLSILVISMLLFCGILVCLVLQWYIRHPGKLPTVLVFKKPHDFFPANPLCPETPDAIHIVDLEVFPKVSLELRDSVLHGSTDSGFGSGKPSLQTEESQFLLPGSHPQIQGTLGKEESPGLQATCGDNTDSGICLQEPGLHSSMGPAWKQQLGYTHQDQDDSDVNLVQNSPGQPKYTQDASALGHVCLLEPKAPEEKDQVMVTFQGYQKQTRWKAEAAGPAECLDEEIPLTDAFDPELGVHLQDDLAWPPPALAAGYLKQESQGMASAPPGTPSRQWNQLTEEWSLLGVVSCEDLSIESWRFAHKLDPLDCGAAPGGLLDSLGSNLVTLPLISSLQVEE

T2: human IL-10 receptor (human, UniProt Q13651 22-578)
T2 construct: Expressed on transfected COS7 cells and Ba/F3 (Ba8.1) cells; The native IL-10 receptor on human cell lines (JY, TF-1, BJAB, Ramos, BH5) is written as this same molecule; also called hIL-10R; human IL-10 receptor component
T2 sequence: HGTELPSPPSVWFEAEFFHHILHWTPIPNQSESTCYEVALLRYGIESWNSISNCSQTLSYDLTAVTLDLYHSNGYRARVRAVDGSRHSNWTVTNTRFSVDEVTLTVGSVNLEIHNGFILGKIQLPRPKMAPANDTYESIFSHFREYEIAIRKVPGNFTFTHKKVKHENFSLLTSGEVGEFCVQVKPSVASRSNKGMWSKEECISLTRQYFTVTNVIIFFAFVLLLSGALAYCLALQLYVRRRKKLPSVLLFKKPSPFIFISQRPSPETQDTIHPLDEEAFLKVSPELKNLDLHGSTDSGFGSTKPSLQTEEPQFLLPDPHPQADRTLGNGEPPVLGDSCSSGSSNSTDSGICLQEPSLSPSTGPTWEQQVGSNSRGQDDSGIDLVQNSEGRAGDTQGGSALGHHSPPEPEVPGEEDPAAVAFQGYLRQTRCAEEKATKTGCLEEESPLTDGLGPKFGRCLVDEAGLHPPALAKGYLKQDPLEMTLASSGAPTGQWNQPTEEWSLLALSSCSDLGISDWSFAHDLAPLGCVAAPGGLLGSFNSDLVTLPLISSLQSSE


Legend:
mouse IL-10 receptor [1] = target: T1, mouse IL-10 receptor; experiment: FACS competition against FLAG-mIL-10 on MC/9 and J774 cells
human IL-10 receptor [2] = target: T2, human IL-10 receptor; experiment: saturation binding of iodinated hIL-10 to JY cells, Scatchard analysis
Description: (§1) Scatchard analysis was performed on the data points obtained using the EBDA Program (Elsevier-Biosoft, Cambridge, U.K.). Antibody inhibition was performed under the above binding conditions but with the addition of a 100-fold molar excess of each of the indicated monoclonal antibodies. Cytokine specificity was determined under similar conditions but with the addition of 500-fold molar excess of the cytokines indicated.

human IL-10 receptor [3] = target: T2, human IL-10 receptor; experiment: Scatchard analysis of 125I-hIL-10 binding to Ba8.1 cells (Ba/F3 expressing hIL-10R), experiment shown
Excerpt: (§2) Values for Kd and receptor number were obtained by Scatchard analysis (23, 33, 34).

human IL-10 receptor [4] = target: T2, human IL-10 receptor; experiment: saturation binding of iodinated hIL-10 to JY cells, Scatchard analysis (EBDA)
Description: as §1

mouse IL-10 receptor [5] = target: T1, mouse IL-10 receptor; experiment: saturation binding of iodinated hIL-10 to MC/9 cells, Scatchard analysis (EBDA)
Description: as §1

[6] = target: IL-10 receptors on JY and MC/9 cells; experiment: saturation binding of iodinated hIL-10 to JY and MC/9 cells, several independent experiments
human IL-10 receptor [7] = target: T2, human IL-10 receptor; experiment: Scatchard analysis of 125I-hIL-10 binding to Ba8.1 cells, repeat experiments
Excerpt: as §2

human IL-10 receptor [8] = target: T2, human IL-10 receptor; experiment: saturation binding of iodinated hIL-10 to COS7 cells transfected with human clone SW8.1, Scatchard plot
Description: (§3) Binding assays were performed. […] For FIGS. 16 and 17, the highest concentration was 1 nM. Background was determined by performing binding at 500-fold molar excess. Points represent averages of duplicates.

mouse IL-10 receptor [9] = target: T1, mouse IL-10 receptor; experiment: saturation binding of iodinated hIL-10 to COS7 cells transfected with mouse clone m3.14, Scatchard plot
Description: as §3

binding result (mouse IL-10 receptor [1]) | Kd (human IL-10 receptor [2]) [nM] | Kd (human IL-10 receptor [3]) [nM] | Kd (human IL-10 receptor [4]) [nM] | Kd (mouse IL-10 receptor [5]) [nM] | Kd [6] [nM] | Kd (human IL-10 receptor [7]) [nM] | Kd (human IL-10 receptor [8]) [nM] | Kd (mouse IL-10 receptor [9]) [nM] | Binder
binds | – | – | – | – | – | – | – | – | mouse IL-10 (ligand, UniProt P18893 19-178, looked up, mature; also called mIL-10; murine IL-10) SRGQYSREDNNCTHFPVGQSHMLLELRTAFSQVKTFFQTKDQLDNILLTDSLMQDFKGYLGCQALSEMIQFYLVEVMPQAEKHGPEIKEHLNSLGEKLKTLRMRLRRCHRFLPCENKSKAVEQVKSDFNKLQDQGVYKAMNEFDIFINCIEAYMMIKMKS
– | ~0.15 | ~0.25 | 0.14 | 0.049 | 0.05 to 0.17 | 0.2 to 0.25 | 0.12 | 0.083 | human IL-10 (ligand, UniProt P22301 19-178, looked up, radioiodinated (125I, lactoperoxidase method) where used as labeled ligand; positions not given, mature; Labeled and unlabeled hIL-10 are treated as one molecule; also called hIL-10; human interleukin-10) SPGQGTQSENSCTHFPGNLPNMLRDLRDAFSRVKTFFQMKDQLDNLLLKESLLEDFKGYLGCQALSEMIQFYLEEVMPQAENQDPDIKAHVNSLGENLKTLRLRLRRCHRFLPCENKSKAVEQVKNAFNKLQEKGIYKAMSEFDIFINYIEAYMTMKIRN
